Where “and” joins values, the source holds several entries; their conditions need not be identical. Equal values may be shown once.
What was measured:
Format in all cases: cell-based
[1] = test system: human stem cells; test: Version A differentiation, flow cytometry of Nkx6.1 and Isl1 at completion of Stage 5 (S5C)
Procedure: (§1) An exemplary base differentiation protocol, Version A, according to the present disclosure, was used for differentiating human stem cells into mature β cells capable of releasing insulin in response to glucose challenge in vitro.
(§2) Version A protocol is a 6-stage stepwise protocol. With Version A protocol, stem cells were treated with reagents in a manner similar to the Version A described in Example 1 of U.S. Patent Publication No. US20220090020A1, which is incorporated by reference herein in its entirety. In some experiments, Version A was modified such that 100 ng/mL Activin A at Stage 1 was replaced with a different concentration of Activin A as described below.
(§3) In one experiment, differentiation of the stem cells was initiated in spinner flasks using Version A protocol, and three different concentrations of Activin A (“AA”), 100 ng/mL (100%), 10 ng/mL (10%), and 5 ng/mL (5%), applied throughout the three days of Stage 1 were tested, while the remaining differentiation steps were kept the same. On QC days, e.g., upon completion of Stage 1 (“S1C”), completion of Stage 3 (“S3C”), or completion of Stage 5 (“S5C”), the cells were examined for their morphology and cell constituents. Specifically, 5 mL of cell cluster suspension solution were taken from the spinner flask, with 1 mL suspension aliquoted into a 24 well plate. Pictures of the cell clusters in the 24-well plate were taken under brightfield microscope. The cell clusters in the remaining 4 mL suspension were dispersed with TrypLE Express (Life Technologies; 12,604,013) at 37° C. for 20 min, fixed with 4% PFA for 20 mins at 4° C., blocked for 1 hour in FACS buffer (5% Donkey Serum and 0.05% Triton-100 in PBS) at room temperature, and stained with various antibodies against cell markers. Stained cells were then measured using an Accuri 6 flow cytometer (BD Biosciences) and analyzed using FlowJo software.
(§4) In one experiment, four different conditions for Stage 1 differentiation were tested: 100% Activin A, 10% Activin A, 10% Activin A plus GSK-690693 (“GSK”), or 10% Activin A plus BYL719 (“BYL”). Characterization of cell morphology and cell constituents were conducted similarly as described in EXAMPLE 1. The experiment was repeated for four times. Table 3 summarizes the quantification of flow cytometry analysis results at S1C, S3C, and S5C, and total viable cell yield at S5C for the four runs. In all the four runs, 0.1 μM […] or 0.04 μM BYL719 was applied for 3 days of Stage 1, except that in the last two runs, Run 4 and Run 5, 0.04 μM of BYL719 was applied for only 2 days (days S1d1 and S1d2).
(§5) In one experiment, six different conditions for Stage 1 differentiation were tested: 100% Activin A, 10% Activin A, 10% Activin A plus GSK-690693, 10% Activin A plus BYL719, 10% Activin A plus GSK-690693 and BYL719, or 100% Activin A plus GSK-690693 and BYL719. Characterization of cell morphology and cell constituents were conducted similarly as described in EXAMPLE 1. FIGS. 2A-5E and Table 4 summarize the characterizations of the cells obtained under the six differentiation conditions at different stages.

[2] = test system: human stem cells; test: Cell cluster morphology under brightfield microscope
Procedure: as §3

[3] = test system: human stem cells; test: Version A differentiation, flow cytometry of Nkx6.1 and Isl1 on day 7 of Stage 6 (S6d7); settings: for S6d7 Nkx6.1 + /Isl1+: day 7 of Stage 6
Procedure: as §1, §2, §3, §5
In another experiment, the effects of the aforementioned six different conditions for Stage 1 differentiation on Stage 6 differentiation were tested under two Stage 6 medium regimens: regimen 1 (Table 5) and regimen 2 (Table 6).

[4] = test system: human stem cells; test: Stage 1 differentiation of stem cells (Version A protocol), flow cytometry of Oct4 and Sox17 at completion of Stage 1 (S1C)
Procedure: as §1, §2, §3
In another experiment, a dose-response test was conducted to examine the effects of different concentrations of Activin A at Stage 1 on stem cell differentiation. Five different concentrations of Activin A were tested: 100 ng/mL (100%), 20 ng/mL (20%), 10 ng/mL (10%), 5 ng/mL (5%), and 0 ng/mL (0%).
as §4, §5

[5] = test system: human stem cells; test: Total viable cell yield at S5C; settings: 10% AA (10 ng/mL Activin A) at Stage 1, Runs 4-5, listed as AA
Procedure: as §1, §2, §4

[6] = test system: human stem cells; test: Version A differentiation, flow cytometry of Pdx1, Cdx2 and Sox2 at completion of Stage 3 (S3C); settings: for S3C Pdx1: Runs 3-5, listed as AA
Procedure: as §1, §2, §3, §4, §5

[7] = 5% Activin A (5 ng/mL) throughout Stage 1
[8] = 10% AA (10 ng/mL Activin A) at Stage 1
[9] = 10% Activin A (10 ng/mL) throughout Stage 1
[10] = 100% AA (100 ng/mL Activin A) at Stage 1
[11] = 100% Activin A (100 ng/mL) throughout Stage 1
[12] = Stage 6 Regimen 1, 10% AA (10 ng/mL Activin A) at Stage 1
[13] = Stage 6 Regimen 1, 100% AA (100 ng/mL Activin A) at Stage 1
[14] = Stage 6 Regimen 2, 10% AA (10 ng/mL Activin A) at Stage 1
[15] = Stage 6 Regimen 2, 100% AA (100 ng/mL Activin A) at Stage 1
[16] = reduced concentrations of Activin A (10% or 5%) vs 100%

B1: Activin A: growth factor from the TGF-β superfamily; exemplary sequences SEQ ID NO: 1-15 in Table 1 (protein, UniProt P08476 311-426, looked up)
Inhibin beta A chain: GLECDGKVNICCKKQFFVSFKDIGWNDWIIAPSGYHANYCEGECPSHIAGTSGSSLSFHSTVINHYRMRGHSPFANLKSCCVPTKLRPMSMLYYDDGQNIIKKDIQNMIVEECGCS
modifications: Inhibin beta A chain
percentage of Nkx6.1-positive cells at S5C ([1]; 5% Activin A): reduced percentage
S5c − Nkx6.1+/Isl1+ [1, 7]: 25.9%
S5c − Nkx6.1+/Isl1− [1, 7]: 25.3%
S5C Nkx6.1+/Isl1+ [1, 8]: 32.9%
S5C Nkx6.1+/Isl1+ ([1]; 10% AA (10 ng/mL Activin A) at Stage 1, Runs 3-5, listed as AA): 25.2 and 38.7 and 32.9
S5c − Nkx6.1+/Isl1+ [1, 9]: 32.9%
S5c − Nkx6.1+/Isl1− [1, 9]: 49.5%
S5c − Nkx6.1+/Isl1− ([1]; 10% Activin A (10 ng/mL) throughout Stage 1, listed as AA): 49.5%
S5C Nkx6.1+/Isl1+ [1, 10]: 32.6%
S5C Nkx6.1+/Isl1+ ([1]; 100% AA (100 ng/mL Activin A) at Stage 1, Runs 3-5, listed as AA): 31.5 and 36.6 and 32.6
S5c − Nkx6.1+/Isl1+ [1, 11]: 32.6%
S5c − Nkx6.1+/Isl1− [1, 11]: 41.1%
S5c − Nkx6.1+/Isl1− ([1]; 100% Activin A (100 ng/mL) throughout Stage 1, listed as AA): 41.1%
cell cluster morphology at completion of Stage 5 ([2]; 5% Activin A): altered morphology
cell cluster morphology at completion of Stage 3 ([2]; 10% or 5% Activin A at Stage 1 vs 100% Activin A): altered morphology
cell cluster morphology at completion of Stage 1 ([2]; 10% or 5% Activin A vs 100% Activin A, irregular shapes and rough edge): altered morphology
S6d7 Nkx6.1 + /Isl1+ [3, 8]: 35.4%
S6d7 Nkx6.1 + /Isl1+ [3, 10]: 37.3%
Markers on S6d7 Isl1 + /Nkx6.1+ [3, 12]: 35.4
Markers on S6d7 Isl1 + /Nkx6.1− [3, 12]: 5.34
Markers on S6d7 Isl1 + /Nkx6.1+ [3, 13]: 37.3
Markers on S6d7 Isl1 + /Nkx6.1− [3, 13]: 7.38
Markers on S6d7 Isl1 + /Nkx6.1+ [3, 14]: 34.6
Markers on S6d7 Isl1 + /Nkx6.1− [3, 14]: 5.42
Markers on S6d7 Isl1 + /Nkx6.1+ [3, 15]: 37.8
Markers on S6d7 Isl1 + /Nkx6.1− [3, 15]: 7.16
S1c − Oct4−/Sox17+ [4, 7]: 76.4%
S1C Sox17 + /Oct4+ [4, 8]: 3.29%
S1C Sox17+/Oct4− [4, 8]: 87.1%
S1C Sox17+/Oct4− ([4]; 10% AA (10 ng/mL Activin A) at Stage 1, Runs 2-5, listed as AA): 61.6 and 80.5 and 87.1 and 73.8
S1c − Oct4−/Sox17+ [4, 9]: 87.1%
S1C Sox17 + /Oct4+ [4, 10]: 3.41%
S1C Sox17+/Oct4− [4, 10]: 79.1%
S1C Sox17+/Oct4− ([4]; 100% AA (100 ng/mL Activin A) at Stage 1, Runs 2-5, listed as AA): 78.2 and 88.2 and 79.1 and 84.5
S1c − Oct4−/Sox17+ [4, 11]: 79.1%
percentage of Oct4-negative, Sox17-positive cells at S1C ([4]; among 100%, 10% and 5% Activin A): not significant difference
percentage of Sox17−/Oct4+ cells at S1C ([4]; dose-response test, 100% Activin A (100 ng/mL) at Stage 1): under 1%
percentage of Sox17−/Oct4+ cells at S1C ([4]; dose-response test, Activin A reduced from 100% to 20%, 10%, or 5%): did not change significantly
percentage of double negative cells (Sox17-negative, Oct4-negative) at S1C ([4]; dose-response test, reduced Activin A (20%, 10%, and 5%) vs 100%): increase
St5C yield [5]: 2.56e+06 mL⁻¹ and 4.1968e+06 mL⁻¹
S3c − Cdx2+/Pdx1+ [6, 7]: 27.0%
S3c− Sox2+/Pdx1+ [6, 7]: 9.76%
S3c − Cdx2+/Pdx1− ([6]; 5% Activin A (5 ng/mL) throughout Stage 1, first line with this head (r7)): 6.22%
S3c − Cdx2+/Pdx1− ([6]; 5% Activin A (5 ng/mL) throughout Stage 1, second line with this head (r9)): 3.63%
S3C Pdx1 + /Cdx2+ [6, 8]: 32.7%
S3C Pdx1 + /Sox2+ [6, 8]: 3.89%
S3C Pdx1 [6, 8]: 56.9 and 93.3 and 75.8
S3c − Cdx2+/Pdx1+ [6, 9]: 32.7%
S3c− Sox2+/Pdx1+ [6, 9]: 3.89%
S3c − Cdx2+/Pdx1− ([6]; 10% Activin A (10 ng/mL) throughout Stage 1, first line with this head (r7)): 1.28%
S3c − Cdx2+/Pdx1− ([6]; 10% Activin A (10 ng/mL) throughout Stage 1, second line with this head (r9)): 1.90%
S3C Pdx1 + /Cdx2+ [6, 10]: 3.21%
S3C Pdx1 + /Sox2+ [6, 10]: 38.8%
S3C Pdx1 [6, 10]: 72.7 and 95.3 and 84.61
S3c − Cdx2+/Pdx1+ [6, 11]: 3.21%
S3c− Sox2+/Pdx1+ [6, 11]: 38.8%
S3c − Cdx2+/Pdx1− ([6]; 100% Activin A (100 ng/mL) throughout Stage 1, first line with this head (r7)): 0.061%
S3c − Cdx2+/Pdx1− ([6]; 100% Activin A (100 ng/mL) throughout Stage 1, second line with this head (r9)): 1.29%
cells expressing Cdx2 at S3C [6, 16]: more
cells expressing Sox2 at S3C [6, 16]: fewer
